Molecular target: GST-NTF2L-F33W (human)
Experiment: SPR

## N_(1–25)-WT peptide (from UniProt P0DTC9 1-25)
  Kd: 1920 nM
